Experimental data from patent US8461322B2, “Plant 1-deoxy-D-xylulose 5-phosphate reductoisomerase” (E I du Pont de Nemours and Company, priority 1998, dated 2013).

B1: second truncated rice His-DXR (SEQ ID NO:31): rice DXR protein in which the first seventy-six amino acids have been removed and replaced with a twenty-one amino acid His-tag (protein)
chain: MGSSHHHHHHSSGLVPRGSHMKPISIVGSTGSIGTQTLDIVAENPDKFRVVALAAGSNVTLLADQVKTFKPKLVAVRNESLVDELKEALADCDWKPEIIPGEQGVIEVARHPDAVTVVTGIVGCAGLKPTVAAIEAGKDIALANKETLIAGGPFVLPLAQKHKVKILPADSEHSAIFQCIQGLPEGALRRIILTASGGAFRDWPVDKLKEVKVADALKHPNWNMGKKITVDSATLFNKGLEVIEAHYLFGAEYDDIEIVIHPQSIIHSMIETQDSSVLAQLGWPDMRIPTLYTMSWPDRIYCSEVTWPRLDLCKLGSLTFKAPDNVKYPSMDLAYAAGRAGGTMTGVLSAANEKAVELFIDEKIGYLDIFKVVELTCDAHRNELVTRPSLEEIIHYDLWAREYAASLQPSTGLSPVPV
modifications: His-tag; His-tagged truncated rice 1-deoxy-D-xylulose 5-phosphate reductoisomerase
B2: truncated rice His-DXR (SEQ ID NO:30): rice DXR protein in which the first fifty-one amino acids have been removed and replaced with a twenty amino acid His-tag (protein)
chain: MGSSHHHHHHSSGLVPRGSHMQQAPPPAWPGRAVVEPGRRSWDGPKPISIVGSTGSIGTQTLDIVAENPDKFRVVALAAGSNVTLLADQVKTFKPKLVAVRNESLVDELKEALADCDWKPEIIPGEQGVIEVARHPDAVTVVTGIVGCAGLKPTVAAIEAGKDIALANKETLIAGGPFVLPLAQKHKVKILPADSEHSAIFQCIQGLPEGALRRIILTASGGAFRDWPVDKLKEVKVADALKHPNWNMGKKITVDSATLFNKGLEVIEAHYLFGAEYDDIEIVIHPQSIIHSMIETQDSSVLAQLGWPDMRIPTLYTMSWPDRIYCSEVTWPRLDLCKLGSLTFKAPDNVKYPSMDLAYAAGRAGGTMTGVLSAANEKAVELFIDEKIGYLDIFKVVELTCDAHRNELVTRPSLEEIIHYDLWAREYAASLQPSTGLSPVPV
modifications: His-tag; His-tagged truncated rice 1-deoxy-D-xylulose 5-phosphate reductoisomerase
B3: E. coli His-DXR: His-tagged E. coli 1-deoxy-D-xylulose 5-phosphate reductoisomerase (protein)
chain: MGSSHHHHHHSSGLVPRGSHMKQLTILGSTGSIGCSTLDVVRHNPEHFRVVALVAGKNVTRMVEQCLEFSPRYAVMDDEASAKLLKTMLQQQGSRTEVLSGQQAACDMAALEDVDQVMAAIVGAAGLLPTLAAIRAGKTILLANKESLVTCGRLFMDAVKQSKAQLLPVDSEHNAIFQSLPQPIQHNLGYADLEQNGVVSILLTGSGGPFRETPLRDLATMTPDQACRHPNWSMGRKISVDSATMMNKGLEYIEARWLFNASASQMEVLIHPQSVIHSMVRYQDGSVLAQLGEPDMRTPIAHTMAWPNRVNSGVKPLDFCKLSALTFAAPDYDRYPCLKLAMEAFEQGQAATTALNAANEITVAAFLAQQIRFTDIAALNLSVLEKMDMREPQCVDDVLSVDASAREVARKEVMRLAS
modifications: His tag; His-tagged E. coli 1-deoxy-D-xylulose 5-phosphate reductoisomerase
B4: Synechocystis His-DXR: His-tagged Synechocystis 1-deoxy-D-xylulose 5-phosphate reductoisomerase (protein)
chain: MGSSHHHHHHSSGLVPRGSHMVKRISILGSTGSIGTQTLDIVTHHPDAFQVVGLAAGGNVALLAQQVAEFRPEIVAIRQAEKLEDLKAAVAELTDYQPMYVVGEEGVVEVARYGDAESVVTGIVGCAGLLPTMAAIAAGKDIALANKETLIAGAPVVLPLVEKMGVKLLPADSEHSAIFQCLQGVPEGGLRRIILTASGGAFRDLPVERLPFVTVQDALKHPNWSMGQKITIDSATLMNKGLEVIEAHYLFGLDYDHIDIVIHPQSIIHSLIEVQDTSVLAQLGWPDMRLPLLYALSWPERIYTDWEPLDLVKAGSLSFREPDHDKYPCMQLAYGAGRAGGAMPAVLNAANEQAVALFLQEKISFLDIPRLIEKTCDLYVGQNTASPDLETILAADQWARRTVLENSACVATRP
modifications: His-tag; His-tagged Synechocystis 1-deoxy-D-xylulose 5-phosphate reductoisomerase

Test: Recombinant DXR activity, non-radioactive kinetic assay (oxidation of NADPH monitored at 340 nm)
Assay type: biochemical
Conditions: Ni-Agarose purified His-tagged protein expressed in E. coli, 100 mM Hepes pH 7.5, 1 mM MnCl2, NADPH, 0.3 mM DXP, room temperature
Description: Recombinant His-tagged DXR proteins were purified from E. coli using Ni-Agarose. Recombinant DXR activity was measured using a non-radioactive kinetic assay (Kuzuyama et al. (1998) Tetrahedron Lett 39:7913-7916). The assay mixture contained the following: 100 mM Hepes (pH 7.5); 1 mM MnCl2; […] NADPH, DXR, and 0.3 mM 1-deoxy-D-xylulose […] (DXP). The final volume of the reaction mixture was 200 μl and the assay was initiated by adding the substrate. The assay was run at room temperature on a plate reader. The oxidation of NADPH was monitored at 340 nm. The DXR activity was determined from the slope of the kinetic curve.

| Molecule | DXR activity (oxidation of NADPH) |
| --- | --- |
| B1 | no oxidation of NADPH was detected |
| B2 | no oxidation of NADPH was detected |
| B3 | DXR activity was detected |
| B4 | DXR activity was detected |
